Results as given in US20100080799.

Test system: recombinant H2A.X (WT), N-terminal 6xHis tag

Substance: recombinant N-terminal portion of WSTF (N-WSTF)
- kinase activity (in vitro kinase assay): Only N-WSTF had kinase activity
